The text below walks through data of the supplement of paper PMC12042874.

± gives the uncertainty stated by the source.

This data set in a line: amyloid nucleation score (Sup35N fusion, yeast selection) (log enrichment); library NNK3; higher = more nucleation; inactive = no reads after selection. The method in brief: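 Peptides of 20 random codons fused to Sup35N were expressed in psi-negative yeast, induced 24 hours with 100 μM copper sulfate, then grown 7 days at 30°C on medium lacking adenine and uracil. Input and output plasmid inserts were Illumina-sequenced. Nucleation score is the DiMSum log enrichment of output over input reads, centred on the mode score of non-aggregating sequences, excluding sequences with under 100 input reads. Random libraries had three technical output replicates.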
CRLVINNYMSR registered an amyloid nucleation score of 2.83 ± 0.065.

Regarding CRMERGRFRLLKTQ, the amyloid nucleation score result is “inactive”.

As for CRNKFLVKGAFTRGSREN, the amyloid nucleation score entry was “inactive”.

CRSAVKMGVPLRILLMY: the amyloid nucleation score entry was “inactive”.

With CRTSHSWVMYWLRREMCY, the amyloid nucleation score result was “inactive”.

As for CRVVDFG, the amyloid nucleation score is -0.107 ± 0.49.

As to CRWEVCVVLFLMNCDKNGSC, the amyloid nucleation score entry was “inactive”.

For CSASAYDSVIIDRIIYLIRG, the amyloid nucleation score entry was “inactive”.

Take CSEVFTSNWAYETASNCKRV: the amyloid nucleation score came out at 1.08 ± 0.12.

As for CSEVGRS, the amyloid nucleation score entry is “inactive”.

Turning to CSIHL, the amyloid nucleation score entry was “inactive”.

Turning to CSLQLASDQGFSQRDDCTVH, the amyloid nucleation score entry was “inactive”.

In the case of CSNKQSDTSFAYLTIMNMCP, the amyloid nucleation score result was “inactive”.

Regarding CSVTIGLIDTSPAIVSIPSD, the amyloid nucleation score result is “inactive”.

For the substance CSVVSWFEAGFRFNDLMNGV, the amyloid nucleation score entry was “inactive”.

Consider CTFDSSSNYADSAKLIG, for which the amyloid nucleation score entry was “inactive”.

As to CTFQYSIIYRCYYRYGVVR, the amyloid nucleation score result was “inactive”.

As for CTITNWHNKYC, the amyloid nucleation score entry is “inactive”.

For the substance CTLVLLKQ, the amyloid nucleation score result was “inactive”.

In the case of CTVNCMTNNATVLVVRGPLR, the amyloid nucleation score came out at 2.26 ± 0.067.

With CVASR, the amyloid nucleation score entry is “inactive”.

For CVCPDNDSPCDLGWVRRGNR, the amyloid nucleation score entry is “inactive”.

Substance CVDTDLVERWIAWVSSGVML had an amyloid nucleation score of 0.663 ± 0.21.

In turn, CVFLCDDWFGFCNLNRRFKG had an amyloid nucleation score of 2.82 ± 0.074.

With CVFRWMLFSASEYDGRILKW, the amyloid nucleation score result was “inactive”.

As for CVGQAPGVSLGFQTYQLILW, the amyloid nucleation score result was “inactive”.

Regarding CVLKMLNNHHAHFILNGCRT, the amyloid nucleation score entry is “inactive”.

In the case of CVLNW, the amyloid nucleation score entry is “inactive”.

With CVMCG, the amyloid nucleation score entry is “inactive”.

The substance CVSIKIASPPF showed an amyloid nucleation score of 0.43 ± 0.3.

With CVVCCG, the amyloid nucleation score result is “inactive”.

For the substance CVYQLLGLVKMRNIRADGHA, the amyloid nucleation score result is “inactive”.

For the substance CWFFV, the amyloid nucleation score is 0.242 ± 0.39.

On to CWFKLMLASMIKENTLSTYG, for which the amyloid nucleation score entry is “inactive”.

Turning to CWHCVIDAGFLSQYVRVFYS, the amyloid nucleation score entry is “inactive”.

Turning to CWYQPPNDNVYFMMILYI, the amyloid nucleation score was 1.97 ± 0.084.

CYQSE: the amyloid nucleation score result is “inactive”.

Turning to CYRLQAFNARGTERTDAVYL, the amyloid nucleation score entry is “inactive”.

Regarding CYRRSYASKLSDV, the amyloid nucleation score result is “inactive”.

Turning to CYRSISRRDPS, the amyloid nucleation score result is “inactive”.

For the substance CYSPQFVCYATGHVKSDLML, the amyloid nucleation score entry was “inactive”.

On to CYWEPRSWISCRRPILRMSV, for which the amyloid nucleation score entry was “inactive”.

As for DARNET, the amyloid nucleation score result was “inactive”.

With DARVFKAVFRVLCDLVPASC, the amyloid nucleation score result is “inactive”.

As for DATSNC, the amyloid nucleation score was -0.232 ± 0.73.

Take DCNSVFVLRVFNSVLFGIKD: the amyloid nucleation score result is “inactive”.

With DCVGYRGGDGFAWTADELWS, the amyloid nucleation score entry is “inactive”.

As for DCWYHMPHQIWH, the amyloid nucleation score entry is “inactive”.

With DDGGVTVVWTCGRVCIQMGN, the amyloid nucleation score was 0.399 ± 0.24.

Regarding DDGSLDLMTKTA, the amyloid nucleation score entry is “inactive”.

For the substance DDKRTENG, the amyloid nucleation score entry is “inactive”.

As to DDLYMFMLIVRMLISQIKRV, the amyloid nucleation score result is “inactive”.

In the case of DDSLDVSCLEYRSAME, the amyloid nucleation score entry is “inactive”.

Turning to DDTRYHAHTSNLGRITHRIQ, the amyloid nucleation score entry was “inactive”.

On to DECSAHSSFQLSKSILFGQV, for which the amyloid nucleation score entry is “inactive”.

Turning to DEGKSNPPF, the amyloid nucleation score result is “inactive”.

On to DEPAFQDFVLYTSSSSCWRY, for which the amyloid nucleation score entry is “inactive”.

For DEYATRIGYWCCK, the amyloid nucleation score is 1.7 ± 0.084.

Take DFCLCNIRVFPEYRSHYGFG: the amyloid nucleation score result is “inactive”.

In turn, DFCMVVHCIKFMGLCRGGDV showed an amyloid nucleation score of 1.02 ± 0.17.

Turning to DFCMWSYRHRDLCNSVFISS, the amyloid nucleation score entry is “inactive”.

As to DFFLDYL, the amyloid nucleation score entry is “inactive”.

With DFFNWWSSVWFYLLMGRKVE, the amyloid nucleation score entry is “inactive”.

For DFGCKSINCFLNATQ, the amyloid nucleation score result is “inactive”.

For DFGKNSLWSSREDNLKYWFM, the amyloid nucleation score entry is “inactive”.

On to DFHDLEWILNIEGACEEQGT, for which the amyloid nucleation score result is “inactive”.

For the substance DFHYFKRVRNQGWNQKRKRY, the amyloid nucleation score result is “inactive”.

Consider DFIFIQILDVNCRWDRCMYC, for which the amyloid nucleation score came out at 0.444 ± 0.16.

DFNDSLFLPRIDTPSLVFLQ: the amyloid nucleation score result was “inactive”.

Take DFNLFKAQIYLWNSFDVSEF: the amyloid nucleation score is 0.99 ± 0.14.

Turning to DFRSSRLHSIITTQFIYFYD, the amyloid nucleation score result is “inactive”.

DFSFSIRVGSSALGVSKNTE: the amyloid nucleation score was 1.31 ± 0.093.

For the substance DGILTVCYEVVNWNSSSVLL, the amyloid nucleation score result is “inactive”.

Turning to DGLKNYRWYRFNTLDDGLAG, the amyloid nucleation score entry was “inactive”.

DGNLWMKSVCCWTKVFIELL had an amyloid nucleation score of 1.37 ± 0.12.

In the case of DGYKMCRDGIGWIGT, the amyloid nucleation score entry was “inactive”.

As to DHGSIRRMGELHWMQLR, the amyloid nucleation score entry was “inactive”.

Consider DHHQIFYVWSLPMA, for which the amyloid nucleation score result was “inactive”.

Consider DHRRLPSCPIFDWFTLNRGP, for which the amyloid nucleation score entry was “inactive”.

Consider DIPAVINVMGSVYDGR, for which the amyloid nucleation score result was “inactive”.

DISIGQRVRCTIFSGIGPLT: the amyloid nucleation score is -0.913 ± 2.5.

Consider DIVILSTSASSTS, for which the amyloid nucleation score result was “inactive”.

As to DIWFGSSKKSVMRV, the amyloid nucleation score result was “inactive”.

Consider DIWYKVLYMPVLTV, for which the amyloid nucleation score result is “inactive”.

With DIWYRIKMFSIWKFMSHTTG, the amyloid nucleation score entry was “inactive”.

In the case of DKELKPNFRWGRNFYSFYIC, the amyloid nucleation score result was “inactive”.

DKHMIGLYNPRASIELL: the amyloid nucleation score result was “inactive”.

On to DLCAEFWIYWHVTMPVYLEM, for which the amyloid nucleation score result was “inactive”.

As for DLFGCPDLMMYTELIMLYW, the amyloid nucleation score result was “inactive”.

For DLFSFYVGCLKSHPENPSLM, the amyloid nucleation score result was “inactive”.

As for DLGYVLLMTHSRIMMCLHHY, the amyloid nucleation score result is “inactive”.

As for DLILWFPL, the amyloid nucleation score entry is “inactive”.

As to DLLDHGFEASSKDLEFRDHS, the amyloid nucleation score result was “inactive”.

On to DLNDGWGWKRLTFQSVRCGE, for which the amyloid nucleation score entry was “inactive”.

Consider DLNMGYKFLISKYSWPVYPM, for which the amyloid nucleation score entry was “inactive”.

On to DLPKVHGKFFYSLPMVVNTN, for which the amyloid nucleation score was -0.162 ± 0.98.

Turning to DLQLRNWCLWVSWWN, the amyloid nucleation score entry is “inactive”.

Turning to DLSSSGCKLSRIFHGHNWSR, the amyloid nucleation score entry was “inactive”.

Turning to DLWDTCCLII, the amyloid nucleation score result was “inactive”.

For the substance DMCIHWDEGNAWWYKSMASV, the amyloid nucleation score result is “inactive”.

On to DMGKKSSLGNKWVIREAHMG, for which the amyloid nucleation score result is “inactive”.

In the case of DMIESSKRFFGSARIVLPEM, the amyloid nucleation score result was “inactive”.

On to DMIKCGLSPDRVFIWYWPNK, for which the amyloid nucleation score entry was “inactive”.

DMISFKMLQYCWCSSCVFSH showed an amyloid nucleation score of 2.18 ± 0.088.

Consider DMLAYADMLHNFFNSSVHFW, for which the amyloid nucleation score result is “inactive”.

The substance DMNSACCVWHSVFYSEFYVI displayed an amyloid nucleation score of 2.19 ± 0.069.

As to DMTGGVCHFWSCCVSCNK, the amyloid nucleation score came to 2.96 ± 0.072.

As to DMWYRYYMSLGSCKRGSVWK, the amyloid nucleation score result is “inactive”.

Consider DNFVEDFLTMASGNIRC, for which the amyloid nucleation score result is “inactive”.

On to DNLGLFSVVKRSPMLSVTKE, for which the amyloid nucleation score entry is “inactive”.

On to DNQVICISCYGLIGLKGGRQ, for which the amyloid nucleation score was determined as 1.5 ± 0.11.

Consider DNRYVY, for which the amyloid nucleation score result is “inactive”.

On to DPLILPIVVDRIVADDCYCQ, for which the amyloid nucleation score result is “inactive”.

In the case of DPPHWVDFSRFR, the amyloid nucleation score result is “inactive”.

As for DPTIVIGDQPIRLRPSVCQM, the amyloid nucleation score result was “inactive”.

For the substance DPVMTACNALMTSVS, the amyloid nucleation score was -0.319 ± 1.3.

For DQECRA, the amyloid nucleation score result was “inactive”.

Take DQGDRSFCSNLRLGYGVRAW: the amyloid nucleation score result is “inactive”.

In the case of DQGHRNYINSPRNFLSDKSC, the amyloid nucleation score result is “inactive”.

For DRHSTYCLAS, the amyloid nucleation score result was “inactive”.

On to DRHVSQFSVWDW, for which the amyloid nucleation score entry is “inactive”.

Regarding DRKNCRRSHVWVMRMGNWYC, the amyloid nucleation score entry is “inactive”.

For the substance DRLPGANICKRRFDMCERKV, the amyloid nucleation score entry was “inactive”.

Take DRNLDVPCLDVLRSMLDVCN: the amyloid nucleation score is -0.464 ± 0.96.

Consider DRVITSNFFSSVWTQT, for which the amyloid nucleation score result is “inactive”.

Consider DRYFLVDAKMFTGRTYLILG, for which the amyloid nucleation score is -0.416 ± 0.88.

As to DRYLCVVKCSVVTGIDQMSM, the amyloid nucleation score entry is “inactive”.

With DSFNCDFNMCHDYVM, the amyloid nucleation score entry was “inactive”.

DSIAVCGRITPSLNLQFDMQ: the amyloid nucleation score entry is “inactive”.

As for DSKGIFYFFGLVSLY, the amyloid nucleation score result was “inactive”.

DSKMLCCCCWPVRN came in with an amyloid nucleation score of 1.42 ± 0.12.
